Target: the molecule itself
Assay: SDS-PAGE

B1: full-length Lsr2 from Mycobacterium tuberculosis (natural protein)
chain: not shown
notes: Lsr2 (Rv3597c) of Mycobacterium tuberculosis H37Rv, full length; also called Rv3597c
binding result: binds

From paper PMC3374832, “The Structure of the Oligomerization Domain of Lsr2 from Mycobacterium tuberculosis Reveals a Mechanism for Chromosome Organization and Protection” (PLoS ONE, 2012)
